Patent publication US20040241163A1 (published 2004)

B1: secreted HCMV UL21.5 protein (UL21.5 activity in concentrated supernatant of wild-type HCMV-infected human fibroblasts) (other)
chain: APSQKSKRSVTVEQPSTSADGSNTTPSKNVTLSQGGSTTDGDEDYSGEYDVLITDGDGSEHQQPQKTDEHKENQAKENEKKIQ
modifications: highly glycosylated (sites not given)
notes: Not purified: tested as 300-fold concentrated serum-free culture medium of fibroblasts infected with wild-type AD169 virus; Secreted forms of 45 kDa and 25 kDa are cited; also called Wt supernatant; HCMV-infected cell supernatant

Experiments:
interferon-γ = target: T1, interferon-γ (UniProt P01579 24-166); assay: competition of unlabeled cytokine with 125I-RANTES for cross-linking to UL21.5
T1 construct: also called IFN-γ
T1 sequence: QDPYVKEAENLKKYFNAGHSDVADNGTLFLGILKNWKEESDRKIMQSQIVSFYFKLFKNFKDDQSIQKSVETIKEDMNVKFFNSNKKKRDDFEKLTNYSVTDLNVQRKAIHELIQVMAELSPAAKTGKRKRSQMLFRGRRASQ

[1] = target: B1; assay: EDC cross-linking of 125I-chemokine to infected cell supernatant, SDS-PAGE autoradiogram
[2] = target: B1; assay: summary in the description of the Scatchard analysis of Example 4 (rounded value)
[3] = target: B1; assay: Scatchard analysis, 125I-RANTES (25-500 pM) with infected cell supernatant, PEG precipitation and filtration

B1: no binding (interferon-γ).

B2: MIP-1α (ligand)
chain: SLAADTPTACCFSYTSRQIPQNFIADYFETSSQCSKPGVIFLTKRSRQVCADPSEEWVQKYVSDLELSA
modifications: also: 125I-labeled in tracer form, position not given here
notes: also called MIP-1 alpha; 125I-labeled MIP-1α
B2: no binding (tested: 0.4 nM 125I-labeled chemokine) [1].

B3: RANTES (regulated upon activation, normal T cell expressed and secreted) (ligand)
chain: SPYSSDTTPCCFAYIARPLPRAHIKEYFYTSGKCSNPAVVFVTRKNRQVCANPEKKWVREYINSLEMS
modifications: also: 125I-labeled in tracer form, position not given here
notes: also called 125I-labeled RANTES; 125I-RANTES
B3 was tested, and the Kd [2] was 0.15 nM and the Kd [3] was 0.147 nM.
